Source: PMC7093963, “DDX39B interacts with the pattern recognition receptor pathway to inhibit NF-κB and sensitize to alkylating chemotherapy”

Molecular target: His-DDX39B (UniProt Q13838 1-428)
Assay: EMSA; 0-300 ng protein; bound more than -1A; EMSA: bacterially expressed DDX39B, 32P probes, non-denaturing 5% acrylamide gel; binding buffer, salt, pH and temperature not given. Pull-down: U87 nuclear extract pre-cleared with non-specific biotin DNA, 2 h with probe
Conditions: protein: recombinant; tags: N-terminal His (pET-45b, 5' polyhistidine); label: 32P (T4 PNK); blunt

Chain of His-DDX39B (Q13838 whole entry): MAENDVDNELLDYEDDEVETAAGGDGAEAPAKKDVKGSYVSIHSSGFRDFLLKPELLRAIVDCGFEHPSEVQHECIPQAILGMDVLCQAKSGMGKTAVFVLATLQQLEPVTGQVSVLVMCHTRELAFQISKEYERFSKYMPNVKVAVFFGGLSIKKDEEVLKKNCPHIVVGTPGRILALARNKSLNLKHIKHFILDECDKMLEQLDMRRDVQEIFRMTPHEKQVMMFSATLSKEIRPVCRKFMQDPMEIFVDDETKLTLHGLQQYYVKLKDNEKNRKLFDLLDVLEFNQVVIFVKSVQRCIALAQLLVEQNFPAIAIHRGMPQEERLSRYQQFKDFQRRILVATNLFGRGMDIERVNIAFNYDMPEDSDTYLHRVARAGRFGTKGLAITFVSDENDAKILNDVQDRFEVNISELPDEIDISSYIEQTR

B1: -1C kB probe (dsDNA)
DNA 1: TCGAGTTAGATGGGGACTTTCCAGGCAC
DNA 2: GTGCCTGGAAAGTCCCCATCTAACTCGA
B1: binds.
